Data published in paper PMC8249405 (2021).

B1: Xcc XopR-FL (aa 1-411) (natural protein)
chain: MRLSQLFNSRHRVAPEPHGANPNKTTPLIPGASPQHPLSQAPKSTTSQGASKSHRGMLASARKSLASLRKQLPLTCMGSSPTLETVESPPAHTAAVTPGRTQQQHGTQARVDQRWQPPVPNATDHERVQRPQPQPQQTPPTRQSMSVPPKPARAQQLHGPQRPVDPRMQPPIPERMRRDEGQPPQHDKPASPPVPITPAQSSLPSPRPQPGRQPSLRRLDLQLEEITRQCSDIQKQLFMEDREATPQEQHLLKTRAALIAWRNEVRDSQLEALLVALAPMEDIRAPRTTSSGLAMVQMDAMQHNRREVLKARRKSVDRAALARNYARAQRRLESLKQGDAPKEQIRRLQRMMQGYQNMLALEQIVRSTDDQLERLGAPRLMSGIPTTAEQRRQSFEKERDAHQEAIDNGYY
B2: Arabidopsis thaliana Formin 1 AtFH1-FH1C (domain or fragment)
chain: RQGLQSQLLSSPSNSHGGQGFLKQLDALRSRSPSSSSSSVCSSPEKASHKSPVTSPKLSSRNSQSLSSSPDRDFSHSLDVSPRISNISPQILQSRVPPPPPPPPPLPLWGRRSQVTTKADTISRPPSLTPPSHPFVIPSENLPVTSSPMETPETVCASEAAEETPKPKLKALHWDKVRASSDREMVWDHLRSSSFKLDEEMIETLFVAKSLNNKPNQSQTTPRCVLPSPNQENRVLDPKKAQNIAILLRALNVTIEEVCEALLEGNADTLGTELLESLLKMAPTKEEERKLKAYNDDSPVKLGHAEKFLKAMLDIPFAFKRVDAMLYVANFESEVEYLKKSFETLEAACEELRNSRMFLKLLEAVLKTGNRMNVGTNRGDAHAFKLDTLLKLVDVKGADGKTTLLHFVVQEIIRAEGTRLSGNNTQTDDIKCRKLGLQVVSSLCSELSNVKKAAAMDSEVLSSYVSKLSQGIAKINEAIQVQSTITEESNSQRFSESMKTFLKRAEEEIIRVQAQESVALSLVKEITEYFHGNSAKEEAHPFRIFLVVRDFLGVVDRVCKEVGMINERTMVSSAHKFPVPVNPMMPQPLPGLVGRRQSSSSSSSSSTSSSDEDEHNSISLVS

Experiments:
[1] = biological target: the molecule itself; experiment: SPR; bivalent model, koff1
[2] = biological target: B1; experiment: SPR; bivalent model, koff1

| Binder | koff [1] | koff [2] |
| --- | --- | --- |
| B1 | 0.27 s⁻¹ |  |
| B2 |  | 0.0152 s⁻¹ |
